Source: the RNAGym collection of RNA variant scans (doi:10.7554/elife.80360)

B1: CPEB3 Ribozyme (parent)
chain: GGGGGCCACAGCAGAAGCGUUCACGUCGCGGCCCCUGUCAGAUUCUGGUGAAUCUGCGAAUUCUGCUGU

Variants of: B1
Experiment: self-cleavage, relative activity (ratio to wild type); higher = more cleavage; co-transcriptional

In order of falling self-cleavage:
1. GGGGGCCACAGCAGAAGGGUUCACGUCCCGGCCCCUGUCAGAUUCUGGUGAAUCUGCGAAUUCUGCUGU [C18G G28C]  0.911
2. GGGGGCCACAGCAGAAGGGUUCACGUCGCGGCCCCUGUCAGAUUCUGGUGAAUCUGCGAAUUCUGCUAU [C18G G68A]  0.403
3. GGGGGCCACAGCAGAAGGGUUCACGUCGCGGCCCCUGUCAGAUUCUGGUGAAUCUGCGAAUUCUGCUGC [C18G U69C]  0.352
4. GGGGGCCACAGCAGAAGGGUUCACGGCGCGGCCCCUGUCAGAUUCUGGUGAAUCUGCGAAUUCUGCUGU [C18G U26G]  0.267
5. GGGGGCCACAGCAGAAGGGUUCACGUCGCGGCCCCUGUCAGAUUCUGGUAAAUCUGCGAAUUCUGCUGU [C18G G50A]  0.266
6. GGGGGCCACAGCAGAAGGGUUCACGUCGCGGCCCCUGUCAGAUUCUGGUGAAUCUGCGAAUUCUGCUGA [C18G U69A]  0.26
7. GGGGGCCACAGCAGAAGGGUUCACGUCGCGGCCCCUGUCAGAUUCUGGUGAAUCUGCGAAUUCUGCUGG [C18G U69G]  0.252
8. GGGGGCCACAGCAGAAGGGUUCACGUCGCAGCCCCUGUCAGAUUCUGGUGAAUCUGCGAAUUCUGCUGU [C18G G30A]  0.236
9. GGGGGCCACAGCAGAAGGGUUCACGUCGCGGCCCCUGCCAGAUUCUGGUGAAUCUGCGAAUUCUGCUGU [C18G U38C]  0.234
10. GGGGGCCACAGCAGAAGGGUUCACGUCGCGGCCCCUGUCAGAUUCUGGUGAAUCUGCGAAUUCAGCUGU [C18G U64A]  0.228
11. GGGGGCCACAGCAGAAGGGUUCACGUCGCGGCCCCUGUCAGAUUCAGGUGAAUCUGCGAAUUCUGCUGU [C18G U46A]  0.227
12. GGGGGCCACAGCAGAAGGGUCCACGUCGCGGCCCCUGUCAGAUUCUGGUGAAUCUGCGAAUUCUGCUGU [C18G U21C]  0.219
13. GGGGGCCACAGCAGAAGGGGUCACGUCGCGGCCCCUGUCAGAUUCUGGUGAAUCUGCGAAUUCUGCUGU [C18G U20G]  0.218
14. GGGGGCCACAGCAGAAGGGUUCACGUCGCGGCCCCUGUCAGAUUCUGGGGAAUCUGCGAAUUCUGCUGU [C18G U49G]  0.217
15. GGGGGCCACAGCAGAAGGGUUCACGUCGCGGCCCCUGUCAGAUUCUGGUGAAUCUGCGAAUUCUGCUCU [C18G G68C]  0.21
16. GGGGGCCACAGCAGAAGGGUUCACGUCGCGGCCCCUGUCAGAUUCUAGUGAAUCUGCGAAUUCUGCUGU [C18G G47A]  0.21
17. GGGGGCCACAGCAGAAGGGUUCACGUCGCGGCCCCUGUCAGAUUCUGGUGAAUCUGCGAACUCUGCUGU [C18G U61C]  0.209
18. GGGGGCCACAGCAGAAGGGUUCACGUCGCGGCCCCUGUCAGAUUCUGUUGAAUCUGCGAAUUCUGCUGU [C18G G48U]  0.208
19. GGGGGCCACAGCAGAAGGGUUCACGUCGCGGCCCCUGUCAGAUUCUGGUGAAUCUGCGAAUUCUGCAGU [C18G U67A]  0.205
20. GGGGGCCACAGCAGAAGGGUUCACGUCGCGGCCCUUGUCAGAUUCUGGUGAAUCUGCGAAUUCUGCUGU [C18G C35U]  0.203
21. GGGGGCCACAGCAGAAGGGUUCACGUCGCGGCCCCUGUCAGAUUCUGGUGAAGCUGCGAAUUCUGCUGU [C18G U53G]  0.199
22. GGGGGCCACAGCAGAAGGGUUCACGUCGCGGCCCCUGUCAGAUUCUGGUGAAUCCGCGAAUUCUGCUGU [C18G U55C]  0.198
23. GGGGGCCACAGCAGAAGGGUUCACGUCGCGGCCCCUGUCAGACUCUGGUGAAUCUGCGAAUUCUGCUGU [C18G U43C]  0.188
24. GGGGGCCACAGCAGAAGGGUUCACGUCGCGGCCCCUGUCAGAUUCUGGUGAAUCUGCGAAUUCUGCCGU [C18G U67C]  0.186
25. GGGGGCCACAGCAGAAGGGUUCACGUCGCGGCCCCUGUCAGAUUCUGGUGAAUAUGCGAAUUCUGCUGU [C18G C54A]  0.186
26. GGGGGCCACAGCAGAAGGGUUCACGUCGCGGCCCCUGUCAGAUUUUGGUGAAUCUGCGAAUUCUGCUGU [C18G C45U]  0.183
27. GGGGGCCACAGCAGAAGGGUUCACGUCGCUGCCCCUGUCAGAUUCUGGUGAAUCUGCGAAUUCUGCUGU [C18G G30U]  0.183
28. GGGGGCCACAGCAGAAGGGUUCACGUCGCGUCCCCUGUCAGAUUCUGGUGAAUCUGCGAAUUCUGCUGU [C18G G31U]  0.181
29. GGGGGCCACAGCAGAAGGGUUCACGUCGCGGCCCCUGUCAGAUUCUGGUGAAUCUGCGAAUUAUGCUGU [C18G C63A]  0.179
30. GGGGGCCACAGCAGAAGGGUUCACGUCGCGGCCCCUGUCAGAUUCUGGUGAAACUGCGAAUUCUGCUGU [C18G U53A]  0.177
31. GGGGGCCACAGCAGAAGGGUUCACGUCGCGGCCCCUGUCAGAUUCUGGUGAAUCUGCUAAUUCUGCUGU [C18G G58U]  0.176
32. GGGGGCCACAGCAGAAGGGUUCACGCCGCGGCCCCUGUCAGAUUCUGGUGAAUCUGCGAAUUCUGCUGU [C18G U26C]  0.175
33. GGGGGCCACAGCAGAAGGGUGCACGUCGCGGCCCCUGUCAGAUUCUGGUGAAUCUGCGAAUUCUGCUGU [C18G U21G]  0.174
34. GGGGGCCACAGCAGAAGGGUUCACGUCGCGGCCCCUGUCAGAUUCUGCUGAAUCUGCGAAUUCUGCUGU [C18G G48C]  0.17
35. GGGGGCCACAGCAGAAGGGUUCACGUCGCCGCCCCUGUCAGAUUCUGGUGAAUCUGCGAAUUCUGCUGU [C18G G30C]  0.167
36. GGGGGCCACAGCAGAAGGGUUCACGUCGCGGCCCCUGUCAGAUUCUGGUGAAUCUGCGAAUUCGGCUGU [C18G U64G]  0.159
37. GGGGGCCACAGCAGAAGGGUUCACGUCGCGGCCCCUGGCAGAUUCUGGUGAAUCUGCGAAUUCUGCUGU [C18G U38G]  0.155
38. GGGGGCCACAGCAGAAGGGUUCACGUCGCGGCCCCUGUCAGAUUCUGGUGAAUCUGCCAAUUCUGCUGU [C18G G58C]  0.154
39. GGGGGCCACAGCAGAAGGUUUCACGUCGCGGCCCCUGUCAGAUUCUGGUGAAUCUGCGAAUUCUGCUGU [C18G G19U]  0.153
40. GGGGGCCACAGCAGAAGGGUUCACUUCGCGGCCCCUGUCAGAUUCUGGUGAAUCUGCGAAUUCUGCUGU [C18G G25U]  0.151
41. GGGGGCCACAGCAGAAGGGUUCACGUCGCGGCCCGUGUCAGAUUCUGGUGAAUCUGCGAAUUCUGCUGU [C18G C35G]  0.151
42. GGGGGCCACAGCAGAAGGGUUCACGUCGCGGCCCCUGUCAGAUUCCGGUGAAUCUGCGAAUUCUGCUGU [C18G U46C]  0.15
43. GGGGGCCACAGCAGAAGGGUUCACGUCGCGGCCCCUGUCAGAUUCUGGCGAAUCUGCGAAUUCUGCUGU [C18G U49C]  0.147
44. GGGGGCCACAGCAGAAGGGUUCACGUCGCGGCCCCGGUCAGAUUCUGGUGAAUCUGCGAAUUCUGCUGU [C18G U36G]  0.145
45. GGGGGCCACAGCAGAAGGGUUCACGUCGCGGCCCCUGUCAGAUUCUGGUGAAUCUGUGAAUUCUGCUGU [C18G C57U]  0.145
46. GGGGGCCACAGCAGAAGGGUUCACGUCGCGGCCCCUGUCAGAUUCUGAUGAAUCUGCGAAUUCUGCUGU [C18G G48A]  0.145
47. GGGGGCCACAGCAGAAGGGUUCACGUCGCGGCCCCUGUCAGAUUCUGGUGAAUCUGCGAAGUCUGCUGU [C18G U61G]  0.144
48. GGGGGCCACAGCAGAAGGGUUCACGUCGCGGCCCCUGUCAGAUUCUGGUUAAUCUGCGAAUUCUGCUGU [C18G G50U]  0.143
49. GGGGGCCACAGCAGAAGGGUUCACGUCGCGGCCCCUGUCAGAUUCUGGUGAAUCUGCGAAUACUGCUGU [C18G U62A]  0.142
50. GGGGGCCACAGCAGAAGGGUUCACGUCGCGCCCCCUGUCAGAUUCUGGUGAAUCUGCGAAUUCUGCUGU [C18G G31C]  0.142
51. GGGGGCCACAGCAGAAGGGUUCACGUCGCGGCCCCUGUCAGAUUCUGGUGAAUCUGCGAAUUCUCCUGU [C18G G65C]  0.141
52. GGGGGCCACAGCAGAAGGGUUCACGUCGCGGCCCCUGUCAGAUUCUGGUGAAUCUGCGAAUUUUGCUGU [C18G C63U]  0.136
53. GGGGGCCACAGCAGAAGGGUUCACGUCGCGGCCCCUGUCAUAUUCUGGUGAAUCUGCGAAUUCUGCUGU [C18G G41U]  0.134
54. GGGGGCCACAGCAGAAGGGUUCACGUCGCGGCCCCUGUCAGAUUCUGGUGAAUCUGCGAAUUCUACUGU [C18G G65A]  0.131
55. GGGGGCCACAGCAGAAGGGUUCACGUCUCGGCCCCUGUCAGAUUCUGGUGAAUCUGCGAAUUCUGCUGU [C18G G28U]  0.129
56. GGGGGCCACAGCAGAAGGGUUCACGUCGCGGCCCCUGUCAGAUUCUGGUGAAUCUUCGAAUUCUGCUGU [C18G G56U]  0.128
57. GGGGGCCACAGCAGAAGGGUUCACGUCGCGGCCCCUGUCAGAUUCUGGUGAAUCAGCGAAUUCUGCUGU [C18G U55A]  0.126
58. GGGGGCCACAGCAGAAGGGUUCACGUCGCGGCCCCCGUCAGAUUCUGGUGAAUCUGCGAAUUCUGCUGU [C18G U36C]  0.122
59. GGGGGCCACAGCAGAAGGGUUCACGUCGCGGCCCCUGUCAGAUUCUGGUGAAUCUGCGAAUCCUGCUGU [C18G U62C]  0.122
60. GGGGGCCACAGCAGAAGGGUUCACGUCGCGGCCCCAGUCAGAUUCUGGUGAAUCUGCGAAUUCUGCUGU [C18G U36A]  0.12
61. GGGGGCCACAGCAGAAGGGUUCACGACGCGGCCCCUGUCAGAUUCUGGUGAAUCUGCGAAUUCUGCUGU [C18G U26A]  0.119
62. GGGGGCCACAGCAGAAGGGUUCACGUCGCGGCCCCUGUCAGAUACUGGUGAAUCUGCGAAUUCUGCUGU [C18G U44A]  0.116
63. GGGGGCCACAGCAGAAGGGUUCACGUCGCGGCCCCUGUCAGAAUCUGGUGAAUCUGCGAAUUCUGCUGU [C18G U43A]  0.114
64. GGGGGCCACAGCAGAAGGAUUCACGUCGCGGCCCCUGUCAGAUUCUGGUGAAUCUGCGAAUUCUGCUGU [C18G G19A]  0.114
65. GGGGGCCACAGCAGAAGGGUUCACGUCGCGGCCCCUGUCAAAUUCUGGUGAAUCUGCGAAUUCUGCUGU [C18G G41A]  0.113
66. GGGGGCCACAGCAGAAGGGUUCACGUCGCGGCCCCUGUCAGAUUGUGGUGAAUCUGCGAAUUCUGCUGU [C18G C45G]  0.113
67. GGGGGCCACAGCAGAAGGGUUCACGUCGCGGCCCCUCUCAGAUUCUGGUGAAUCUGCGAAUUCUGCUGU [C18G G37C]  0.111
68. GGGGGCCACAGCAGAAGGGUUCACGUCGCGGCCCCUGUCAGAUUCUGGUGAAUCUGCGAAUUCUGAUGU [C18G C66A]  0.11
69. GGGGGCCACAGCAGAAGGGUUCACGUCGCGGCCCCUGUCAGAUUCUGGUGAAUCUGCGAAUUCCGCUGU [C18G U64C]  0.1
70. GGGGGCCACAGCAGAAGGGUUCACGUCGCGACCCCUGUCAGAUUCUGGUGAAUCUGCGAAUUCUGCUGU [C18G G31A]  0.0986
71. GGGGGCCACAGCAGAAGGGUUCACGUCGCGGCCCCUGUCACAUUCUGGUGAAUCUGCGAAUUCUGCUGU [C18G G41C]  0.0964
72. GGGGGCCACAGCAGAAGGGUUCACCUCGCGGCCCCUGUCAGAUUCUGGUGAAUCUGCGAAUUCUGCUGU [C18G G25C]  0.092
73. GGGGGCCACAGCAGAAGGGUUCACGUCGCGGCCCCUGUCAGAUUCUGGUGAAUCUGAGAAUUCUGCUGU [C18G C57A]  0.0895
74. GGGGGCCACAGCAGAAGGGUUCACGUCGCGGCCCCUGUCAGAUUCUGGUGAACCUGCGAAUUCUGCUGU [C18G U53C]  0.0868
75. GGGGGCCACAGCAGAAGGGUUCACGUCGCGGCCCCUUUCAGAUUCUGGUGAAUCUGCGAAUUCUGCUGU [C18G G37U]  0.0757
76. GGGGGCCACAGCAGAAGGGUUCACGUCGCGGCCCCUGUCAGAUUAUGGUGAAUCUGCGAAUUCUGCUGU [C18G C45A]  0.0664
77. GGGGGCCACAGCAGAAGGGCUCACGUCGCGGCCCCUGUCAGAUUCUGGUGAAUCUGCGAAUUCUGCUGU [C18G U20C]  0.0509
78. GGGGGCCACAGCAGAAGGGUUCACGUCGCGGCCCCUGUCAGAGUCUGGUGAAUCUGCGAAUUCUGCUGU [C18G U43G]  0.0435
